Test results: patent publication US5726147A, “Human mutant tissue factor compositions useful as tissue factor antagonists” (priority 1995, dated 1998)

Legend:
Format in all cases: biochemical
[1] = system: coagulation in recalcified plasma; assay: One stage clotting (coagulation) assay of specific functional activity of full-length TF mutants in CHO cell lysates; settings: full-length Ala mutant expressed in CHO cells, cell lysate, coagulant activity normalized to antigen, relative to wild-type TF
Experimental: The full-length TF mutants prepared above were analyzed for function by coagulation assay. […] Coagulation factor deficient plasmas were purchased from George King Bio-medical. The chromogenic substrate, Spectrozyme FXa, was from American Diagnostica Inc. (Greenwich, Conn.).
An alternative approach was to use a polyvalent antibody purified by affinity for capturing TF followed by detection with the TF8-5G9 monoclonal antibody described above.
Initiation of coagulation by wild-type and mutant TF in recalcified plasma was determined after lysis of cell pellets from 2×10^6 cells/ml for each expressed full-length mutant with 15 mM octyl-glucopyranoside in HBS for 15 minutes at 37 C. followed by a 3-fold dilution.
All data represented are based on at least three independent determinations performed in duplicate.

recombinant VIIa = assay: Linked chromogenic assay with purified VIIa and factor X, apparent dissociation constant of the TF-VIIa interaction; settings: full-length Ala mutants, linked chromogenic assay
Experimental: (§1) The lysate was prepared by treating cell pellets with 15 mM octyl-glucopyranoside for 15 minutes at 37 C. followed by a 3-fold dilution. […] Formed TF-VIIa complexes were quantified with substrate factor X added at 100 nM for a fixed time. Samples were then removed from the reaction and quenched in 100 mM EDTA in TBS (20 mM Tris-HCl 140 mM NaCl, pH 7.4). […] The rate of Spectrozyme hydrolysis, measured as the increase in absorbance (mOD/min), was determined at ambient temperature in a kinetic plate reader (Molecular Devices, Mountain View, Calif.) followed by quenching and monitoring of product factor Xa formation using the Spectrozyme FXa.
Enzfitter (Elsevier Biosoft) programs were employed to calculate the KDapp from the experimentally determined bound VIIa, and free VIIa which was obtained by subtracting bound VIIa from the initial VIIa concentration.

Factor X = assay: Functional cleavage of Factor X by the TF-VIIa complex (reaction rate Vmax), D44 mutants
Experimental: as §1
Additional mhuTF mutants were prepared based on amino acid residue substitutions at amino acid residue position number D44.

Row | Molecule | loss of function (reduction in specific functional activity as % of wild-type activity) [1] | change in KDapp for the TF-VIIa interaction compared to wild-type TF (ratio KD mutant/KD wild-type) (recombinant VIIa) | loss of function (specific functional activity, Vmax) compared to wild-type (Factor X; calculated from Vmax rates) | reaction rate (Vmax) (Factor X; cleavage of Factor X)
1 | Phe-140: human tissue factor mutant, Phe-140 substituted by Ala (protein, UniProt P13726 33-295, looked up, variant F140A) Tissue factor: SGTTNTVAAYNLTWKSTNFKTILEWEPKPVNQVYTVQISTKSGDWKSKCFYTTDTECDLTDEIVKDVKQTYLARVFSYPAGNVESTGSAGEPLYENSPEFTPYLETNLGQPTIQSFEQVGTKVNVTVEDERTLVRRNNTALSLRDVFGKDLIYTLYYWKSSSSGKKTAKTNTNEFLIDVDKGENYCFSVQAVIPSRTVNRKSTDSPVECMGQEKGEFREIFYIIGAVVFVVIILVIILAISLHKCRKAGVGQSWKENSPLNVS | 30-50% | 18 fold |  | 
2 | Arg-135: human tissue factor mutant, Arg-135 substituted by Ala (protein, UniProt P13726 33-295, looked up, variant R135A) Tissue factor: SGTTNTVAAYNLTWKSTNFKTILEWEPKPVNQVYTVQISTKSGDWKSKCFYTTDTECDLTDEIVKDVKQTYLARVFSYPAGNVESTGSAGEPLYENSPEFTPYLETNLGQPTIQSFEQVGTKVNVTVEDERTLVARNNTFLSLRDVFGKDLIYTLYYWKSSSSGKKTAKTNTNEFLIDVDKGENYCFSVQAVIPSRTVNRKSTDSPVECMGQEKGEFREIFYIIGAVVFVVIILVIILAISLHKCRKAGVGQSWKENSPLNVS | 30-50% | 7.4 fold |  | 
3 | R44: mhuTF in which arginine is substituted in place of D44 (protein, UniProt P13726 33-295, looked up, variant D44R) Tissue factor: SGTTNTVAAYNLTWKSTNFKTILEWEPKPVNQVYTVQISTKSGRWKSKCFYTTDTECDLTDEIVKDVKQTYLARVFSYPAGNVESTGSAGEPLYENSPEFTPYLETNLGQPTIQSFEQVGTKVNVTVEDERTLVRRNNTFLSLRDVFGKDLIYTLYYWKSSSSGKKTAKTNTNEFLIDVDKGENYCFSVQAVIPSRTVNRKSTDSPVECMGQEKGEFREIFYIIGAVVFVVIILVIILAISLHKCRKAGVGQSWKENSPLNVS |  |  | 75% | ~0.5 per second
